Measured values: PMC8599812 (Nucleic Acids Research, 2021)
Like-named read-outs stand apart in the source and are kept apart here.

Columns and labels:
D2-Zn-WH [1] = molecular target: T1, D2-Zn-WH (human, UniProt P46063 282-616); test: fluorescence anisotropy
SEC = molecular target: the molecule itself; test: SEC
RECQ1T1 = RECQ1T1 (human, UniProt P46063 49-616); test: fluorescence anisotropy
RECQ1T1,helix4A = RECQ1T1,helix4A (human, UniProt P46063 49-616, F420A;F424A;S427A;S428A); test: fluorescence anisotropy
D2-Zn-WH helix4A [2] = molecular target: T2, D2-Zn-WH helix4A (human, UniProt P46063 282-616, F420A;F424A;S427A;S428A); test: fluorescence anisotropy
D2-Zn-WH [3] = molecular target: T1, D2-Zn-WH; test: fluorescence anisotropy; remark: listed apart in the source
D2-Zn-WH helix4A [4] = molecular target: T2, D2-Zn-WH helix4A; test: fluorescence anisotropy; remark: listed apart in the source
D2-Zn-WH [5] = molecular target: T1, D2-Zn-WH; test: fluorescence anisotropy; remark: listed apart in the source

T2 sequence (P46063 282-616 F420A/F424A/S427A/S428A): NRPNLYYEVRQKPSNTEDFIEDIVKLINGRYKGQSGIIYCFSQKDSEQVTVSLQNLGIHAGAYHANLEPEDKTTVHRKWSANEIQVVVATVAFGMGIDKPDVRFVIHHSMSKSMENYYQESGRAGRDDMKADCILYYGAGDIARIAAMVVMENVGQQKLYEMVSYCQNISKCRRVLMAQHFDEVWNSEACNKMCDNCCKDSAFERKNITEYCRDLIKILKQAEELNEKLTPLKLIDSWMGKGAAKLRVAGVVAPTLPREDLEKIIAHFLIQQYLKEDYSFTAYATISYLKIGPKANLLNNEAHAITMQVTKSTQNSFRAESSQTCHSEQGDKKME

B1: Rec20_FL ssDNA 20-mer (ssDNA)
DNA: GGATCTCGACGCTCTCCCTT
- Kd (D2-Zn-WH [1]): 1480 ± 110 nM

B2: RECQ1^T1 (near full-length human RECQ1, amino acid 49–616) (enzyme, UniProt P46063 49-616, looked up)
chain: CLEDSDAGASNEYDSSPAAWNKEDFPWSGKVKDILQNVFKLEKFRPLQLETINVTMAGKEVFLVMPTGGGKSLCYQLPALCSDGFTLVICPLISLMEDQLMVLKQLGISATMLNASSSKEHVKWVHAEMVNKNSELKLIYVTPEKIAKSKMFMSRLEKAYEARRFTRIAVDEVHCCSQWGHDFRPDYKALGILKRQFPNASLIGLTATATNHVLTDAQKILCIEKCFTFTASFNRPNLYYEVRQKPSNTEDFIEDIVKLINGRYKGQSGIIYCFSQKDSEQVTVSLQNLGIHAGAYHANLEPEDKTTVHRKWSANEIQVVVATVAFGMGIDKPDVRFVIHHSMSKSMENYYQESGRAGRDDMKADCILYYGFGDIFRISSMVVMENVGQQKLYEMVSYCQNISKCRRVLMAQHFDEVWNSEACNKMCDNCCKDSAFERKNITEYCRDLIKILKQAEELNEKLTPLKLIDSWMGKGAAKLRVAGVVAPTLPREDLEKIIAHFLIQQYLKEDYSFTAYATISYLKIGPKANLLNNEAHAITMQVTKSTQNSFRAESSQTCHSEQGDKKME
- stoichiometry N (SEC): 2

B3: Fork30T_R_FL/Fork30T_F forked duplex (dsDNA)
DNA 1: TTTTTTTTTTTTTTTTTTTTTTTTTTTTTTCGTACCCGATGTGTTCGTTC
DNA 2: GAACGAACACATCGGGTACGTTTTTTTTTTTTTTTTTTTTTTTTTTTTTT
- Kd (RECQ1T1): 87 ± 16 nM
- Kd (RECQ1T1,helix4A): 193 ± 27 nM

B4: Rec20_FL/Rec20R 20 bp blunt duplex (dsDNA)
DNA 1: GGATCTCGACGCTCTCCCTT
DNA 2: AAGGGAGAGCGTCGAGATCC
- Kd (D2-Zn-WH helix4A [2]): 2080 ± 150 nM
- Kd (D2-Zn-WH [3]): 1170 ± 120 nM

B5: Rec20_FL/Rec20R_3oh 20/10-mer 3' tailed duplex (dsDNA)
DNA 1: GGATCTCGACGCTCTCCCTT
DNA 2: GTCGAGATCC
- Kd (D2-Zn-WH helix4A [4]): 5700 ± 1100 nM
- Kd (D2-Zn-WH [5]): 1970 ± 300 nM
